{"source": "patent US20240280570A1", "key": {"[1]": {"target": "SARS-CoV-2 RBD (Sino Biological 40592-V08H); Spike Receptor Binding Domain residues R319 - F541 His tagged (SARS-CoV-2) (UniProt P0DTC2)", "test": "OECT sensor, PEDOT:PSS channel, nanobody on gate, target in buffer"}, "[2]": {"target": "SARS-CoV-2 RBD (Sino Biological 40592-V08H); Spike Receptor Binding Domain residues R319 - F541 His tagged (SARS-CoV-2) (UniProt P0DTC2)"}, "[3]": {"target": "SARS-CoV-2 RBD (Sino Biological 40592-V08H); Spike Receptor Binding Domain residues R319 - F541 His tagged (SARS-CoV-2) (UniProt P0DTC2)", "remark": "listed apart in the source"}}, "note": "Like-named read-outs stand apart in the source and are kept apart here.", "data": [{"substance": "VHH72-8 aa-spyCatcher-3C cleavage site-His8", "values": [{"measurement": "LOD", "setting": "[1]", "result": 0.024, "unit": "pM"}, {"measurement": "LOD", "setting": "[2]", "result": 0.048, "unit": "pM"}, {"measurement": "LOD", "setting": "[3]", "result": 0.023, "unit": "pM"}]}]}
